Data reported in the supplement of paper PMC9170038.

Test system: K4 kissing-loop RNA reporter
Experiment: apparent KD of K4 kissing-loop reporter; higher = weaker reporter binding
Settings: Eterna round: R107
Method: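 RNA-MaP round R107: designed RNA switches with theophylline, tryptophan, arginine or FMN aptamers are transcribed on-chip within common flanks. They are titrated with a labelled K4 kissing-loop RNA reporter in RNA-MaP buffer (100 mM Tris pH 7.5, 80 mM KCl, 4 mM MgCl2), without ligand or with the indicated ligand. Median apparent KD per design.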

[1] = input ligand: theophylline 20 uM
[2] = input ligand: tryptophan 2.4 mM
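Note: bound reporter read as fluorescence of individual clusters on recovered sequencing chips by microscopy, with normalized cluster intensities fitted with a binding model.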

Sequence	apparent KD of K4 kissing-loop reporter (input ligand: FMN 200 uM) [µM]	apparent KD of K4 kissing-loop reporter (input ligand: arginine 13.2 mM) [µM]	apparent KD of K4 kissing-loop reporter (input ligand: none) [µM]	apparent KD of K4 kissing-loop reporter [1] [µM]	apparent KD of K4 kissing-loop reporter [2] [µM]
UCGAAGGAUGGAAGGAGCGCUCGUCAGCCCUGCGAGUGAUGUUCGUGGGUAAAUAGUCGCGAGCAGGUAGGUCGCCAUCUUGAGC [Ritera]	0.128	0.111	0.13	0.111	0.116
UCGACAGUGAACGAUACCAGCGUCACGUGGCUGGUGGUCACAUGAGUGAUGUUCAUGUAACGCCCUUGGCAGCGUGCACGUAUCA [KL-XTheo-B8]	0.141	0.127	0.133	0.125	0.129
UCGAUGGCCAGCGAUACCAGCCCAGUGAUGUUGGGCACAUGGUUGCGGGAAAUCCCAUUGGGCCCUUGGCAGCGCUUGCAUGGGU [Dizaisa]	0.148	0.121	0.14	0.12	0.125
UCGCCAAAGUCGGCCGCCACUCCGGGCCCUAUAAAUGGGCGCAGUGAUGUUGCGGCUAGGCCUCUGAGGACCGGGACUUUGUAGA [Esenusza]	0.116	0.000509	0.152	0.233	0.152
UCGGCAAAGUCGGCCGCCACUCCGGGCCCUAUAAAUGGGCGCAGUGAUGUUGCGGCUAGGCCUCUGAGGACCGGGACUUUGUAGA [Gebive]	0.114	0.0917	0.112	0.146	0.204
UCGGCAGUGAACGAUACCAGCGUCACGUGGCUGGUGGUCACAUGAGUGAUGUUCAUGUAACGCCCUUGGCAGCGUGCGCGUACCG [KL-XTheo-B11]	0.113	0.0981	0.107	0.0947	0.103
UCGGGCGGCUGAAGGAGCGGGCGGGCCCGAGUGAUGUUCGGGUGGGCCGUGAGGCCCGGAGCCCAGGUAGGUCGCGGUUCCGCCC [#2 Same State - Arginine B Attempt #23 (HarryS)]	0.2	0.153	0.188	0.168	0.175
UCGUCUGUGUGAGGAUAUCCAAGCGAGCUGCGUAAAGGCGCGGCGUUUGGAGUGAUGUUCCAGGCAGGAGAAGGCGCACGGGCUU [Maleisar]	0.231	0.296	0.245	0.47	0.292
UCUCUUCUCAGUGAUGUUGAGUAAUCGGAAGGAGCGCGUGAAAACGCAGGUAGGUCGCCGAUUUGUGAAGUAUCUUCGCAAGAGA [Arginine A K4 26]	0.352	0.341	0.412	0.441	0.3
UCUGAAGGUGGAGGAUAUUGAUUGAAUCUUGGUCAGGAGUGAUGUUCCGGGAAGCCUUGGAUUCAUCGAGAAGGCCAAGGAUAGU [#10 K4 FMN B Same State]	0.144	0.259	0.243	0.306	0.225
UCUGCAAAGUCGGCCGCCACUCCGGGCCCUAUAAAUGGGCGCAGUGAUGUUGCGGCUAGGCCUCUGAGGACCGGGACUUCGUAGA [Somale]	0.0628	0.0521	0.0547	0.166	0.107
UCUGGAGCGUAUGAUACCAGCAGAGAGAGACAGGAAGUAUAGUGAUGUUAUAUGAGAGAAUGCCCUUGGCAGCGUGUGCAGUGGC [#26 K4 Theophylline B Same State]	0.0559	0.0565	0.0668	0.0534	0.048
UCUGGUAUAUCUGAUACCAGAGUAUAGUAUCAAUUGCAUAUCCGCAGUGAUGUUGCGGAACUCCCUUGGCAGCAGAUCUAUCUCU [Same State Theophylline B GF 26]	0.0716	0.0906	0.0818	0.0868	0.07
UCUUAACUAAAAUAAUGGGAUACCAGUGAUACCAGCCAUAUGCAGGGCCCUUGGCAGCACCCUUGGCAGCCUCGAGUGAUGUUCG [KL-SSTheo-A7 #DoubleAptamer]	0.283	0.292	0.315	0.247	0.23
UGAACUUUUGCUAGGAACCGUCUAGCUCUUUAGGAUAUCUGGAAACAGAGAAGGAAAGACCUACAGAGUGAUGUUCUGCGUUCAU	0.383	0.268	0.316	0.316	0.263
UGACAUUGCUCAGAUACCAGACAAGAGGAUCACCCUUGUGCCAAAACGUACUAAAUAAAUGUCCCUUGGCAGCUGAGCAAUGUCU [TheoBX 13]	0.0825	0.0421	0.0459	0.0774	0.0586
UGACAUUGCUCAGAUACCAGACUUGAGGAACACCCAAGUGCCAAAUACGUACAAAUAAAAGUCCCUUGGCAGCUGAGCAAUGUCU [TheoBX 12]	0.0583	0.0235	0.0485	0.148	0.0385
UGACUACAUCCUAGUGAUGUUUAGGAUAUGUAGGAUAUGCUGAUAAGCAGAAGGACAGAAGGAAGUGAUGUUCUUAAAGUAGUCU [FmnAX 29 #DoubleAptamer #Double K4 #SwitchBubble #StaticStem]	0.644	0.783	1.05	0.76	0.802
UGACUGGACUGAAGGAGCGAGCGAGACAAAGUCUCGGAAAUUCAGUGAUGUUGAUAUAUAACUCAGGUAGGUCGCAGUCUAGUCU [ArgBS 6 #SwitchBubble #StaticStem]	0.35	0.411	0.459	0.363	0.335
UGACUGGACUGAAGGAGCGAGGACGGUCAUAGACCGAAAUCAGUGAUGUUGAAAGAUAAACCUCAGGUAGGUCGCAGUCUAGUCU [ArgBS 1 #SwitchBubble #StaticStem]	1.07	0.918	0.79	0.546	1.23
